# Reference: paper PMC3967969 (Molecular Biology of the Cell, 2014)
# T1: MEI-2, wild type (from MBP-TEV-MEI-2) (C. elegans, UniProt O44740 1-280)
# T1 sequence (looked up): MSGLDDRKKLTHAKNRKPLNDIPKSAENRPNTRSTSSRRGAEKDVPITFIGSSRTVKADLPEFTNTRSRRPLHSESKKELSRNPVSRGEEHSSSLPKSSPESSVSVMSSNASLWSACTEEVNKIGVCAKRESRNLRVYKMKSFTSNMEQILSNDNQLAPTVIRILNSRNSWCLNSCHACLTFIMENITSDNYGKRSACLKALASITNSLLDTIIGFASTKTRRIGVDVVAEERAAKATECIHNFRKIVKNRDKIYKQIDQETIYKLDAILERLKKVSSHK
# B1: MEI-1 (short isoform), untagged, wild type (enzyme, C. elegans, UniProt P34808 1-472, looked up)
# chain: MNGDVQSVIRGYLERAQVAKTMSDAGRWNEAGDLLRQLMTDVKSCKISASNRDEHDARNTFLRALEANLKLVQQNVRDEDDLHEAMTRQSGSPEPPADPDVWSKPSPPLPSSSKFGATKKGVGAAGPRPREISKSTSSMSTNPADVKPANPTQGILPQNSAGDSFDASAYDAYIVQAVRGTMATNTENTMSLDDIIGMHDVKQVLHEAVTLPLLVPEFFQGLRSPWKAMVLAGPPGTGKTLIARAIASESSSTFFTVSSTDLSSKWRGDSEKIVRLLFELARFYAPSIIFIDEIDTLGGQRGNSGEHEASRRVKSEFLVQMDGSQNKFDSRRVFVLAATNIPWELDEALRRRFEKRIFIPLPDIDARKKLIEKSMEGTPKSDEINYDDLAARTEGFSGADVVSLCRTAAINVLRRYDTKSLRGGELTAAMESLKAELVRNIDFEAALQAVSPSAGPDTMLKCKEWCDSFGAM
# Molecular target: T1, MEI-2, wild type (from MBP-TEV-MEI-2)
# Test: pull-down
binder,measurement,value
B1,stoichiometry N,1 MEI-1:MEI-2
